Experiment [1] deals with IIIB-V3BaL Env (HXB Env with the V3 loop of HIV-1/BaL; on luciferase reporter virions) (HIV-1 (IIIB/BaL chimera)). Description: cell-based or functional assay.
Experiment [2] deals with 8x-V3BaL Env (8x Env with the V3 loop of HIV-1/BaL; on cells or on luciferase reporter virions) (HIV-1 (IIIBx 8x/BaL chimera)). Description: cell-based or functional assay.

Here are results for two substances from patent US20050191621A1.

Bounds are passed on as bounds.

As to “CD4-induced (CD4i) monoclonal antibody 48d”, in experiment [1], the concentration of antibody required to neutralize 50% of input virus (luciferase reporter virus, GHOST-CCR5 cells) was > 5000 ng/mL and the concentration of antibody required to neutralize 90% of input virus (luciferase reporter virus, GHOST-CCR5 cells) was > 5000 ng/mL. In addition, in experiment [2], the concentration of antibody required to neutralize 50% of input virus (luciferase reporter virus, GHOST-CCR5 cells) was determined as 3 ng/mL; the concentration of antibody required to neutralize 90% of input virus (luciferase reporter virus, GHOST-CCR5 cells) was > 200 ng/mL; the percent neutralization at 200 ng/ml (luciferase reporter virus, GHOST-CCR5 cells) was determined as 88%.

In experiment [1], “CD4-induced (CD4i) monoclonal antibody 17b” came in with a concentration of antibody required to neutralize 50% of input virus (luciferase reporter virus, GHOST-CCR5 cells) of 14 ng/mL and a concentration of antibody required to neutralize 90% of input virus (luciferase reporter virus, GHOST-CCR5 cells) of 90 ng/mL. Further, in experiment [2], the concentration of antibody required to neutralize 50% of input virus (luciferase reporter virus, GHOST-CCR5 cells) turned out to be 2 ng/mL and the concentration of antibody required to neutralize 90% of input virus (luciferase reporter virus, GHOST-CCR5 cells) was 15 ng/mL.
